Experimental data: the supplement of paper PMC7877785
± gives the uncertainty stated by the source.

Test: self-splicing fitness, log relative to wild type (ln ratio); higher = more splicing; Tetrahymena group I intron in knt gene, E. coli kanamycin selection, DiMSum; sequences stand for … in CUCUCU…GGAGGGAAAAGUUAUCAGGCAUGCACCUGGUAGCUAGUCUUUAAACCAAUAGAUUGCAUCGGUUUAAAAGGCAAGACCGUCAAAUUGCGGGAAAGGGGUCAACAGCCGUUCAGUACCAAGUCUCAGGGGAAACUUUGAGAUGGCCUUGCAAAGGGUAUGGUAAUAAGCUGACGGACAUGGUCCUAACCACGCAGCCAAGUCCUAAGUCAACAGAUCUUCUGUUGAUAUGGAUGCAGUUCACAGACUAAAUGUCGGUCGGGGAAGAUGUAUUCUUCUCAUAAGAUAUAGUCGGACCUCUCCUUAAUGGGAGCUAGCGGAUGAAGUGAUGCAACACUGGAGCCGCUGGGAACUAAUUUGUAUGCGAAAGUAUAUUGAUUAGUUUUGGAGUACUCGUGGUCG
Procedure, shortened: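 Colonies from six replicate transformations of E. coli BL21(DE3) were pooled and amplicon-sequenced on an Illumina HiSeq 2500. The library placed an intron with all eight P1ex-region nucleotides randomised inside the knt kanamycin-resistance gene on pET-22b(+), and cells grew overnight at 37°C or 30°C on LB agar with or without 25 μg/mL kanamycin (plus 100 μg/mL carbenicillin, 50 μM IPTG, 0.2% rhamnose). Fitness is the DiMSum error-weighted combination of wild-type-normalised replicate fold changes, kanamycin versus none.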

Sequence | self-splicing fitness (ln) (30 °C) | self-splicing fitness (ln) (37 °C)
GAGGAGCAAUAUUACGUUAA | -2.94 ± 0.36 | -1.65 ± 0.21
GAGGAGCAAUAUUACGUUCC | – | -2.82 ± 0.48
GAGGAGCAAUAUUACGUUUU | -2.16 ± 0.13 | -1.56 ± 0.15
GAGUAGCAAUAUUACGAAAA | -2.8 ± 0.38 | –
GAGUAGCAAUAUUACGAAGC | -2.94 ± 0.32 | -1.8 ± 0.44
GAGUAGCAAUAUUACGAAUG | -3.18 ± 0.26 | -1.89 ± 0.22
GAGUAGCAAUAUUACGACAA | -0.891 ± 0.12 | -0.0944 ± 0.12
GAGUAGCAAUAUUACGACAC | -0.768 ± 0.18 | -0.953 ± 0.27
GAGUAGCAAUAUUACGAUGA | -1.87 ± 0.2 | -2.22 ± 0.23
GAGUAGCAAUAUUACGCAAG | -3.43 ± 0.26 | -0.127 ± 0.1
GAGUAGCAAUAUUACGCAUA | -2.47 ± 0.25 | -1.54 ± 0.24
GAGUAGCAAUAUUACGCGAG | -3.35 ± 0.16 | -0.947 ± 0.1
GAGUAGCAAUAUUACGCGCC | -1.42 ± 0.3 | -0.361 ± 0.29
GAGUAGCAAUAUUACGCGCG | -0.178 ± 0.21 | -1 ± 0.2
GAGUAGCAAUAUUACGCGGG | -3.59 ± 0.2 | -2.55 ± 0.16
GAGUAGCAAUAUUACGCUCA | -0.591 ± 0.15 | -0.761 ± 0.15
GAGUAGCAAUAUUACGGCCU | -0.381 ± 0.12 | 0.808 ± 0.19
GAGUAGCAAUAUUACGGGAG | -2.18 ± 0.19 | -3.1 ± 0.24
GAGUAGCAAUAUUACGGGAU | -3.73 ± 0.33 | -2.96 ± 0.35
GAGUAGCAAUAUUACGGGGA | -2.51 ± 0.14 | -2.45 ± 0.2
GAGUAGCAAUAUUACGGUCA | -0.51 ± 0.12 | 0.0478 ± 0.12
GAGUAGCAAUAUUACGUAAU | -2.16 ± 0.13 | -2.38 ± 0.16
GAGUAGCAAUAUUACGUAGG | -3.9 ± 0.24 | -1.81 ± 0.17
GAGUAGCAAUAUUACGUCGA | -1.43 ± 0.15 | -0.114 ± 0.14
GAGUAGCAAUAUUACGUCUG | -0.699 ± 0.12 | -0.363 ± 0.15

Sequence | self-splicing fitness (ln) (30 °C) | self-splicing fitness (ln) (37 °C)
GAGUAGCAAUAUUACGUGCC | -1.79 ± 0.23 | -0.846 ± 0.18
GAGUAGCAAUAUUACGUGGU | -3.48 ± 0.25 | -0.852 ± 0.29
GAGUAGCAAUAUUACGUGUA | -2.97 ± 0.11 | -1.35 ± 0.1
GAGUAGCAAUAUUACGUUUC | -2.82 ± 0.18 | -2.54 ± 0.27
GAUAAGCAAUAUUACGAAAA | -2.98 ± 0.17 | -2.47 ± 0.2
GAUAAGCAAUAUUACGAAUC | -3.17 ± 0.25 | -2.16 ± 0.25
GAUAAGCAAUAUUACGACAU | -0.4 ± 0.012 | 0.0172 ± 0.032
GAUAAGCAAUAUUACGACCC | -0.0888 ± 0.28 | -0.582 ± 0.37
GAUAAGCAAUAUUACGACGU | -0.187 ± 0.076 | 0.339 ± 0.091
GAUAAGCAAUAUUACGAGGU | -3.42 ± 0.13 | -2.79 ± 0.13
GAUAAGCAAUAUUACGCAGC | -3.45 ± 0.47 | -0.777 ± 0.29
GAUAAGCAAUAUUACGCCAC | -3.11 ± 0.44 | -2.13 ± 0.36
GAUAAGCAAUAUUACGGAUA | -1.73 ± 0.12 | -1.31 ± 0.15
GAUAAGCAAUAUUACGGCCG | -1.35 ± 0.1 | -0.332 ± 0.15
GAUAAGCAAUAUUACGGCCU | -0.624 ± 0.08 | -0.592 ± 0.11
GAUAAGCAAUAUUACGGUAC | -1.92 ± 0.12 | -0.383 ± 0.17
GAUAAGCAAUAUUACGGUUC | -3.24 ± 0.43 | -2.5 ± 0.31
GAUAAGCAAUAUUACGGUUG | -2.65 ± 0.12 | -1.26 ± 0.11
GAUAAGCAAUAUUACGUCCU | -0.907 ± 0.14 | -0.0126 ± 0.19
GAUAAGCAAUAUUACGUCUA | -1.18 ± 0.075 | -0.275 ± 0.085
GAUAAGCAAUAUUACGUGCC | -0.717 ± 0.1 | -0.548 ± 0.13
GAUAAGCAAUAUUACGUGGG | -3.77 ± 0.23 | -2.27 ± 0.25
GAUAAGCAAUAUUACGUGGU | -4.24 ± 0.19 | -2.35 ± 0.15
GAUCAGCAAUAUUACGAGGA | -1.43 ± 0.13 | -1.85 ± 0.13
GAUCAGCAAUAUUACGAUCG | -1.17 ± 0.096 | 0.0523 ± 0.13

Sequence | self-splicing fitness (ln) (30 °C) | self-splicing fitness (ln) (37 °C)
GAUCAGCAAUAUUACGAUUG | -0.607 ± 0.079 | -0.237 ± 0.11
GAUCAGCAAUAUUACGCAAG | -1.99 ± 0.15 | -1.34 ± 0.14
GAUCAGCAAUAUUACGCCUG | -0.866 ± 0.17 | 0.935 ± 0.19
GAUCAGCAAUAUUACGCCUU | -0.124 ± 0.12 | 0.438 ± 0.14
GAUCAGCAAUAUUACGCGAC | -1.63 ± 0.15 | -1.62 ± 0.15
GAUCAGCAAUAUUACGCGAU | -3.92 ± 0.21 | -2.6 ± 0.2
GAUCAGCAAUAUUACGCGCA | 0.225 ± 0.092 | -0.0411 ± 0.1
GAUCAGCAAUAUUACGCGGA | -1.45 ± 0.18 | -0.828 ± 0.14
GAUCAGCAAUAUUACGCGGG | -2.31 ± 0.1 | -1.33 ± 0.11
GAUCAGCAAUAUUACGCUAG | -1.15 ± 0.15 | -0.723 ± 0.18
GAUCAGCAAUAUUACGGACC | -0.933 ± 0.32 | -1.08 ± 0.36
GAUCAGCAAUAUUACGGCAA | -0.689 ± 0.084 | -1.24 ± 0.087
GAUCAGCAAUAUUACGGCAC | -0.826 ± 0.099 | 0.413 ± 0.17
GAUCAGCAAUAUUACGGCUC | 0.00813 ± 0.1 | 0.687 ± 0.12
GAUCAGCAAUAUUACGUAUC | -3.17 ± 0.21 | -2.62 ± 0.21
GAUCAGCAAUAUUACGUCCC | -2.07 ± 0.41 | -0.381 ± 0.22
GAUCAGCAAUAUUACGUCCG | -3.26 ± 0.26 | -1.66 ± 0.22
GAUCAGCAAUAUUACGUUGA | -2.24 ± 0.17 | -1.54 ± 0.15
GAUGAGCAAUAUUACGAAGC | -1.4 ± 0.41 | 0.175 ± 0.21
GAUGAGCAAUAUUACGACGU | -1.09 ± 0.094 | -0.283 ± 0.11
GAUGAGCAAUAUUACGACUG | -3.11 ± 0.44 | –
GAUGAGCAAUAUUACGAGCC | -0.987 ± 0.31 | -1.53 ± 0.41
GAUGAGCAAUAUUACGAUUC | -2.42 ± 0.46 | –
GAUGAGCAAUAUUACGAUUG | -4.96 ± 0.45 | -2.67 ± 0.22
GAUGAGCAAUAUUACGCAUA | -2.68 ± 0.21 | -1.98 ± 0.21

Sequence | self-splicing fitness (ln) (30 °C) | self-splicing fitness (ln) (37 °C)
GAUGAGCAAUAUUACGCGGA | -2.72 ± 0.12 | -2.15 ± 0.11
GAUGAGCAAUAUUACGCGGU | -3.33 ± 0.28 | -2.77 ± 0.34
GAUGAGCAAUAUUACGCGUU | -4.44 ± 0.28 | -3.27 ± 0.21
GAUGAGCAAUAUUACGGAAG | -2.31 ± 0.33 | –
GAUGAGCAAUAUUACGGAGU | -3.16 ± 0.26 | -2.71 ± 0.38
GAUGAGCAAUAUUACGGCCG | 0.414 ± 0.41 | –
GAUGAGCAAUAUUACGGGGA | – | -2.04 ± 0.25
GAUGAGCAAUAUUACGGGUA | -3.19 ± 0.27 | -1.02 ± 0.17
GAUGAGCAAUAUUACGGUAU | -2.71 ± 0.18 | -1.28 ± 0.14
GAUGAGCAAUAUUACGGUGA | -2.21 ± 0.28 | -1.76 ± 0.27
GAUGAGCAAUAUUACGGUUA | -2.77 ± 0.28 | -2.47 ± 0.25
GAUGAGCAAUAUUACGUAAU | -2.8 ± 0.23 | -1.55 ± 0.28
GAUGAGCAAUAUUACGUAGC | -3.69 ± 0.34 | -1.74 ± 0.25
GAUGAGCAAUAUUACGUAUC | -3.54 ± 0.37 | -2.64 ± 0.31
GAUGAGCAAUAUUACGUAUG | – | -1.59 ± 0.14
GAUGAGCAAUAUUACGUCCG | -3.75 ± 0.43 | -2.09 ± 0.32
GAUGAGCAAUAUUACGUGUA | -2.77 ± 0.16 | -1.87 ± 0.16
GAUGAGCAAUAUUACGUGUU | -3.72 ± 0.31 | -2.47 ± 0.27
GAUGAGCAAUAUUACGUUAC | -2.14 ± 0.13 | -0.982 ± 0.23
GAUGAGCAAUAUUACGUUCA | -1.15 ± 0.079 | -0.819 ± 0.094
GAUGAGCAAUAUUACGUUCC | -3.45 ± 0.49 | -2.23 ± 0.42
GAUGAGCAAUAUUACGUUGC | -4.01 ± 0.39 | -3 ± 0.35
